A short description of this series: yeast display, Sf9 membrane polyspecificity reagent, FACS + sequencing; frameworks hold sequencing errors. The method, boiled down:
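Nanobodies from a synthetic yeast display library (Saccharomyces cerevisiae BJ5465), induced 36–48 hours with galactose, were stained 1 hour at 4 °C with 10% biotinylated, detergent-solubilized Sf9 membrane reagent, enriched on streptavidin microbeads, then FACS-sorted. Anti-HA (expression) and streptavidin (reagent binding) fluorescence set low and high (top ~1%) gates. Polyreactivity labels come from the gate of origin. Genes were colony-PCR amplified, MiSeq 2 × 250 sequenced and filtered by CDR length.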
For the sequence “QVQLVESGGGLVQAGGSLRLSCAASGFTFKFNAMGWYRQAPGKERELVAAISYSGGSTYYADSVKGRFTISRDIAKNTVYVQMNSLKPEDTAVYYCAARAYWYGASYYYWGQGTQVTVSS”, the “polyreactivity (PSR sort gate)” value is given as “high polyreactivity”.
The result for “QVQLVESGGGLVQAGGSLRLSCAASGSTLYNYAMGWYRQAPGKERELVAAITKSGGRTYYADSVKGRFTISRDNAKNTVYLQMNSLKAEDTAVYYCAADRTQYARFDSWGQGTQVTVSS” reads “high polyreactivity”.
The result for “QVQIVESGGGLVQAGGSLRLSCAASGRIIGTYAMGWYRQAPGKERELVATISYSSGRTYYADSVKGRFTISRDNAKNTVYLQMNSLKPEVTAVYYCAAVGTGSSLRYDYWGQGTQVTVSS” reads “high polyreactivity”; that for “QVQLVESVGGLVQAGGSLRLSCAASGFTFNGYAMGWYRQAPGKERELVAAINISGGSTYYADSVKGRFTISRDNAKNTVYLQMNSLKPEDTAVYYCAARLWGIRYSYRYGYWGQGTQVTVSS”, “high polyreactivity”; that for “QVQLVESGGGLVQAGGSLRISSAASGNIFLYYAMGWYRQAPGKERELVAYIDSSGASTYYADSVKGRFTISRDNAKNTVYLQMNSLKPEDTAVYFCASDEGTVGGQQLRPLMDYWGQGTQVTVSS”, “low polyreactivity”.
For “QVQLVESGGGLVQAGGSLRLSCAASGRIFYVYGMGWYRQAPGKERELVAAISKRGDNTYYADSVKGRFTISRDNAKNTVYLQMNSLKPEDTAVYYCAAKYNYSPRAGFNFWGQGTQVTVSS”, the “polyreactivity (PSR sort gate)” value was “high polyreactivity”.
On to “QVQLVESRGGLVQAGGSLRLSCAPSGSTFHYYAMGWYRQAQGKERELDAAISDRDGGTFYADSVKGRFTISRDNATNTVYLQINSLKPEDTAVYYCYARKRGARFILGYDYWGQGPQVTVSS”, for which the “polyreactivity (PSR sort gate)” value was “low polyreactivity”.
The result for “QVQLVESGGGLVQAGGSLRLSCAASGLTLKTYAMGWYRQAPGKERELVAGISASGGSTYYADSVKGRFTISRDIAKNTVYLQLNSLKPVDTAVYYCAKVTRAYRAYYYWGQGTQVTVSS” reads “high polyreactivity”; that for “QVQLVESGGGLVQEGGSLRLSCAASGSIFGRNAMGWYRQAPGKERELVAAITSRTGSTFYADSVKGRFTISRDNAKNTDYLQMNSLKPEATAVYYCKAAGPAFSYYHWLWGDYNSWGQGTQVTVSS”, “low polyreactivity”.
As for “QVQLVESGGGLVQAGGSLRLRCAASGFPFDSYAMGWYRQAPGKERELVAAITSDGSTYYADSVKGRFTISRDNAKNTVYVLMNSLKPEDTAVYYCAADGISLYATAYDYWGQGTQVSVSS”, the “polyreactivity (PSR sort gate)” value is “low polyreactivity”.
The result for “QVHLVESGGGLVQAGGSLRLSCAASGNTFGRYAMGWYRQAPGKEREFVAAIRWRGATTYYADSVKGRFTISRDNAKNTVDLQMNSLKPEDTAVYYCAAYYWGQGTGFDYWGQGTQVTVSS” reads “high polyreactivity”; that for “QVQLVESGGGLVQAGGSLRLSCAASGSTFKRNAMGWYRQAPGKERELVATITRRGGSTYADSVKGRFTISRDNAKNTVYLQMNSLKPEDTAVYYCARDGFSAGMDYWGQGTQVTVSS”, “low polyreactivity”.
“QVQLVESGGGLVQAGGSLRLSCAASGSIFSAYAMGWYRQAPRKEREFVAAITRRGGNTYYADSVKGRFTISRDNAKNTVYLQMNSLKPEDTAVYYCAAGFYYVYVWLGEYWGQGTQVTVSS”: the “polyreactivity (PSR sort gate)” value is reported as “low polyreactivity”.
Regarding “QVQLVESGGGLVQAGGSLRLSCAASGITFAFYAMGWYRQAPGKERELVAAISWSGTRTYYADSVKGRFTISRDNAKNTVYLQMNSLKPEDSAVYYCAADYQAGDKLYDYWGQGTQVTVSS”, the “polyreactivity (PSR sort gate)” value is recorded as “low polyreactivity”.
On to “QVQLVESGGGLVQAGGSLRLSCAASGSTFGHNAMGWYRQAPGKERELVAAIDSGDGTTYADSVKGRFTISRDNAKNTVYLQMNSLKPEDTAVYYCAATTDRAEDDDNIGGYWGQGTQVTVSS”, for which the “polyreactivity (PSR sort gate)” value is “low polyreactivity”.
For the sequence “QFHLVESVGGLFQAGGSLRLSSAASGRNFSIYAMGWYRQAPGKERELVAAISWSGGRTYYADSVKGRFTISRDTAKNTVYLQMNSLKPEDTAVYYCNAENGWADYYRSDYWGQGTQVTVSS”, the “polyreactivity (PSR sort gate)” value is given as “high polyreactivity”.
The result for “QVQLVESGGGLVQAGGSLRLSCAASGRTFSWYVMGLYRQAPGKERELVASISGSGGSTYYADSVKGRFTISRDNAKNTVYLQMNSLKPEDTAVYYCARDYFFRSRSDYWGQGTQVTVSS” reads “high polyreactivity”.
“QVQLVESGTGLVQAGGSLRLSCADSGITFVFYSMGSYRQAPGKESELVATISYRGTSTYYADSVKGLFTISRDNAKNSVSLQMNSLKPEDTAVYYCAADTFIYYKTGYGYWGQGTQVTVSS”: the “polyreactivity (PSR sort gate)” value was “low polyreactivity”.
Consider “QVQLQESGGGLVQAGGSLRLSCAASGYISDGYVMGWYRQAPGKEREFVATISGGTTAYYADSVKGRFTISRDNAKNTVYLQMNSLKPEDTAVYYCAAETSYYWDYDYWGHGTQVTVSS”, for which the “polyreactivity (PSR sort gate)” value was “high polyreactivity”.
The result for “QVQLVESGRGLVQAGGSLRLSCAASGRIFVHYAMGWYRQAPGKERELVAAITYSGDSTYYADSVKGRFTISRDNAKNTVYLQMNSLKPEDTAVYYCNAVVRRVLFDYDYWGQGTQVTVSS” reads “high polyreactivity”; that for “QVQLVESGGGLVQAGGSLRLSCAASGSTFYINALGGYRQAPGTERELVAAITWNSDSTYYADSVKGRFTISRDNAKNTVYLQMNSLKPEDTAVYYCNKDRIIWGRLYEEGDYWGQGTQVTVSS”, “low polyreactivity”; that for “QVQLVESGGGLVQAGGSLRLSCAASGSIFDVYTMGWYRQAPGKVRELVAAINTGGGSTYYADSVMGRFTISRDNAKNTVYLEMNSLKPEDTAVYYCAASVYHYGPLYYWGEGTQVTVSS”, “low polyreactivity”.
Consider “QVQLGESGLGLVQAGGSLRLSCAAYGSIFYIYAMGWYRQAPGKERELVAAISRSGGRTYYADSVKGRFTISRDNAKNTVYLQMNSLKPEYTAVYYCAARDHYSNGGMNYWGQGTQVTVSS”, for which the “polyreactivity (PSR sort gate)” value was “high polyreactivity”.
“QDQLVESGGGLVQAGGSLRLSCAASGFIFGRYTMGWYRQAPGQDRELVAAISSRGGSTYDADSGKGRFTISRDNAKNTVYLQMNSLKPEDTAVYYCNALRRPSTEGRDYWGQGTQVTVSS”: the “polyreactivity (PSR sort gate)” value was “high polyreactivity”.
For “QVQLVESGGGLVQAGGSLRLSCAASGLTFTYYAMGWYRQAPGKERELVAAISWSGGSTYYADSVKGRFTISRDKAKNTVYLQMNSLKPEDTAVYYCAAVDPFTPYDRTYTTDGRESDYWGQGTQVTVSS”, the “polyreactivity (PSR sort gate)” value is on record as “low polyreactivity”.
With “QVQLVESGGGLVQAGGSLRLSCAASGSIFNIYAMGWYRQAPGKERELVATITGIADSTYYADSVKGRFTISRDNAKNTVYLQMNSLKPEDTAVYFCAAEKYVAEYEYWGQGTQVTVSS”, the “polyreactivity (PSR sort gate)” value is “low polyreactivity”.
Turning to “QVQLVESGGGLVQAGGSLRLSCAASGYIFSLNGMGWYRQAPGKVRELVAAITVSGGRTYYADSVKGRFTISRDNAKNTVYLQMNSLKPEDTAVYYCAKRGKYSYWPYYKYDYWGQGTQVTVSS”, the “polyreactivity (PSR sort gate)” value is recorded as “high polyreactivity”.
As for “QVQLVESGGGLVKAGGSLRLSCAASGFIFTQNAMGWYRQAPGKERELVAAISGTGGSTYYADSVKGRFTISRDNAKNTVYLQMNSLKPEDTAVYYCAARRRQEHVGRSSYARYDYWGQGTQVTVSS”, the “polyreactivity (PSR sort gate)” value is listed as “high polyreactivity”.
Take “QVQLVESGGGLVQAGGSLRLSCAASGSIFQVYAMGWYRQAPGKETELVAAIRRRGGSTYYADSVKGRFTISRDNAKNTVYLQMNSLKPEDTAVDYCAARTVGFYRYDYWGLGTQVTVSS”: the “polyreactivity (PSR sort gate)” value is “low polyreactivity”.
“QVQLVESGGGLVQAGGSLRLSCAASGRIFRFYAMGWYRHPPGKERELVAAIRRGGSTTYADSVKGRFTISRDNAKNTVYLQMNSLKPEDTAVYYCAATQYYRGYDYWGQGTQVTVSS”: the “polyreactivity (PSR sort gate)” value is “high polyreactivity”.
“QVQLVESGGGLVQAGGSLRLSCAASGIILGYYAMGWYRQAPGKERELVAAINWSGASTYYADSVKGRFTISRDNAKNTVYLQMNSLKPEDTAVYYCARRAYGTRVLFDYWGQGTQVTVSS”: the “polyreactivity (PSR sort gate)” value is “high polyreactivity”.
“QVQLVESGGGLVQAGGSLRLSCAASGLTFVTYVMGWYRPAPGKERELVAAISYSGGSTYYADSVKGRFTISRDNAKNTVYLQMNSLKPEDTAVYYCAAEWYGYQEDDYWGQGTQVTVSS”: the “polyreactivity (PSR sort gate)” value is on record as “low polyreactivity”.
For “QVQLVESGGGLVQAGGSLRLSCAASGRTFFGYAMGWYRQAPGKEREFVAAISGSGGSTYYADSVKGRFTISRDNAKNTVYLQMNSLKPEDTAVYYCNGDYWGEYYYWGQGTQVSVSS”, the “polyreactivity (PSR sort gate)” value is reported as “low polyreactivity”.
“QVQLVESGGGLVQAGSSLRLSCAASGSTLRTNAMGWYRQAPGKEREFVADISKRGGRTYYADSVKGRFTISRDNAKNTVYLQMNSLKPEDTAVYYCAKLVSLAGRIYGYWGQGTQVTVSS”: the “polyreactivity (PSR sort gate)” value is given as “high polyreactivity”.
On to “QVQLVESGGGIVQAGGSLRLSSAASGITFGANAMGWYRQAPGKERELVADITWSGGDTYYADSVKGRFTSSRDNAKNSVYLQMNSLKPEDTAVYYCNALQPGLGSPLGEYDYWGQGTQVTVSS”, for which the “polyreactivity (PSR sort gate)” value is recorded as “low polyreactivity”.
For “QVQLVESGGGLVQAGGSLRLSCAASGRTFYYNAMVWYRQAPGKERELVAAITWSGGRTFYADSVKGRFTISRDNAKNTVYLQMNSLKPEDTAVYYCNAYPVFRSYDYWGQGTQVTVSS”, the “polyreactivity (PSR sort gate)” value is recorded as “high polyreactivity”.
The result for “QVQLVESGGGLVQAGGSLRLSCAASGSIFTYYAMGWYRPEPGKERELVAAISRRGTRTYYADSVKGRFTISRDNAKNTVYLQMNSLKPEDTAVYYCAAEYTETGTAKMEYWGQGTQVTVSS” reads “high polyreactivity”; that for “QVQLVESGGGLVQAGGSLRLSCAASGSIFNLYGMGWYRQAPGKERELVAGSTSSGGSTHYADSVKGRFTISRDNAKNTVYLQMNSLKPEDTAVYYCAKVWSFPSNYRAYYYWGQGTQVTVSS”, “high polyreactivity”.
As to “QVQLVESGGGVGQAGGSLRLSCAASGLSCVDYAMGWYRQAPGKERELVAAISTTGGSTYYADSVKGRFTISRDNAKNTVYLQMKSLKPEDTAVYYCNARFVHHSWGTNYYWGQGTQVTVSS”, the “polyreactivity (PSR sort gate)” value was “high polyreactivity”.
Regarding “QVQLVESGGGLVQAGGSLRLSCAASGSTFFYYAMGWYRQAPGKERELVARITRGGGSTNYADSVKGRFTISRDNAKNTVYLQMNSLKREDTAVYYCAKRRKVTYDYWGQGTQVTVSS”, the “polyreactivity (PSR sort gate)” value is reported as “high polyreactivity”.
On to “QVQLVESGGGLVQAGGSLRLTCASSGRILVSYAIGWYRQAPGKERELVAAISRSGGSTYYADSVKGRFTISRDIAKNTVYLQMNSLKTEDTAVYYCNVYRFSRYDYWGQGTKVTVSS”, for which the “polyreactivity (PSR sort gate)” value was “high polyreactivity”.

(Values after the nanobody polyreactivity screen of Harvey et al. (2022).)
